Measured values: patent US20090220501A1 (published 2009)

Target: T1, human CD19 (human, UniProt P15391 20-556)
T1 construct: whole, on cells; also called CD19 B-cell antigen
T1 sequence (looked up): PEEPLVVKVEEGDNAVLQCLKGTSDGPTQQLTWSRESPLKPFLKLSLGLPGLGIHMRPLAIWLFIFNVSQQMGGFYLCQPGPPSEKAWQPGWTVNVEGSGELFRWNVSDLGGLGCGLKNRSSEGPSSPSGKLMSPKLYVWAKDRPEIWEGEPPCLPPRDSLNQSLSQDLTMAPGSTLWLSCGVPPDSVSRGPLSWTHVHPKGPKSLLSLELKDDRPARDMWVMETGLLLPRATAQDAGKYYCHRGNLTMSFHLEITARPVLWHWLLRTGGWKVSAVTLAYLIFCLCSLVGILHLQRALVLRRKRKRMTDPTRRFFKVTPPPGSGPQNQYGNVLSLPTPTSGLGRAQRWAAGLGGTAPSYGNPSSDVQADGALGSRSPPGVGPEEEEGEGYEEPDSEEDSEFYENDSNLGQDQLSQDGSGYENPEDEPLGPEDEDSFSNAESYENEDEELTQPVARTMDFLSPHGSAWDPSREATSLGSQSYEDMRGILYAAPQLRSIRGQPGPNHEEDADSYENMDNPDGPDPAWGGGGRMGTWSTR
Experiment: flow cytometry on CD19-positive cells with varying antibody concentrations and a fluorescently labeled secondary antibody (Benedict method); mean of 6 experiments

B1: humanized (chimeric) anti-CD19 IgG1 antibody of the disclosure, 4G7chim (antibody, V domains shown)
VH: QVQLQQSGPELIKPGASVKMSCKASGYTFTSYVMHWVKQKPGQGLEWIGYINPYNDGTKYNEKFKGKATLTSDKSSSTAYMELSSLTSEDSAVYYCARGTYYYGSRVFDYWGQGTTLTVTV
VL: DIVMTQAAPSIPVTPGESVSISCRSSKSLLNSNGNTYLYWFLQRPGQSPQLLIYRMSNLASGVPDRFSGSGSGTAFTLRISRVEAEDVGVYYCMQHLEYPLTFGAGTKLEIRR
notes: also called anti-CD19 antibody of the present disclosure; CD19 chimeric antibody
Kd: ~5.5 nM
